Target: Argonaute 1 (Ago1) (human (endogenous in PC-3, LNCaP, HCT116)) (UniProt Q9UL18)
Assay: co-IP; nuclear extracts from PC-3 cells; IP with anti-Ago1 (Wako 2A7) or anti-Ago2 (Wako 4G8), immunoblot for RNAP II; 10 mM Tris-HCl pH 8.0, 150 mM NaCl, 1 mM EDTA, 1 mM DTT, 0.1% NP-40, overnight at 4°C, protein G dynabeads; also done after transfection with siControl, siDicer or siDrosha (50 nM, 72 hrs)

For “RNA polymerase II (from UniProt P24928 1-1970) (complex)”, the decrease of the ratio of bound RNAP II to nuclear Ago1 after siDicer was 70%.

Reference: PMC3784563
